Laboratory results taken from patent US20010010935A1.

Biological target: murine SCI/MIP1-α Variant 3 (murine) (UniProt P10855)
Assay: chromatographic techniques, molecular weight estimate

- estimated molecular weight (self-association): 8 kD
Substance: murine SCI/MIP1-α Variant 3 (from UniProt P10855) (ligand)
